Columns and labels:
HeLa Kyoto [1] = assay: solubility in G1/S (NP-40 vs SDS abundance) (log2 ratio); higher = more soluble; conditions: cell cycle stage: G1/S
HeLa Kyoto [2] = assay: solubility change mitosis vs G1/S (difference of NP-40 vs SDS log2 ratios) (log2 ratio difference); higher = more soluble in mitosis
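Throughout, for solubility change mitosis vs G1/S (difference of NP-40 vs SDS log2 ratios): synchronized HeLa Kyoto cells (double thymidine block for G1/S, nocodazole release for mitosis), protein amounts in NP-40 versus SDS lysates quantified by mass spectrometry, three biological replicates.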
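Throughout, for solubility in G1/S (NP-40 vs SDS abundance): HeLa Kyoto cells arrested at G1/S by double thymidine block, proteins quantified by TMT10plex mass spectrometry in mild NP-40 versus SDS extracts, three biological replicates.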

Sequence | solubility in G1/S (log2) (HeLa Kyoto [1]) | solubility change mitosis (log2) (HeLa Kyoto [2])
MDRDLLRQSLNCHGSSLLSLLRSEQQDNPHFRSLLGSAAEPARGPPPQHPLQGRKEKRVDNIEIQKFISKKADLLFALSWKSDAPATSEINEDSEDHYAIMPPLEQFMEIPSMDRRELFFRDIERGDIVIGRISSIREFGFFMVLICLGSGIMRDIAHLEITALCPLRDVPSHSNHGDPLSYYQTGDIIRAGIKDIDRYHEKLAVSLYSSSLPPHLSGIKLGVISSEELPLYYRRSVELNSNSLESYENVMQSSLGFVNPGVVEFLLEKLGIDESNPPSLMRGLQSKNFSEDDFASALRKKQSASWALKCVKIGVDYFKVGRHVDAMNEYNKALEIDKQNVEALVARGALYATKGSLNKAIEDFELALENCPTHRNARKYLCQTLVERGGQLEEEEKFLNAESYYKKALALDETFKDAEDALQKLHKYMQKSLELREKQAEKEEKQKTKKIETSAEKLRKLLKEEKRLKKKRRKSTSSSSVSSADESVSSSSSSSSSGHKRHKKHKRNRSESSRSSRRHSSRASSNQIDQNRKDECYPVPANTSASFLNHKQEVEKLLGKQDRLQYEKTQIKEKDRCPLSSSSLEIPDDFGGRSEDPRDFYNSYKTQAGSSKTEKPYKSERHFSSRRNSSDSFCRNSEDKIYGYRRFEKDIEGRKEHYRRWEPGSVRHSTSPASSEYSWKSVEKYKKYAHSGSRDFSRHEQRYRLNTNQGEYEREDNYGEDIKTEVPEEDALSSKEHSESSVKKNLPQNLLNIFNQIAEFEKEKGNKSKN [TTC14] | -0.392 | 0.329
MDRGQPSLEPAAAAPRASGRCVIAPVRAVLRLRRRVCVLRKRRLLQPGGGPDVGTGAPRPGCSPRAPRADLDQPKFFTFDSPAELPSRTPRKKRRRSRLVLYPETSRKYRPRVEHRSRAQRCLLLLVAIVGFQVLNAIENLDDNAQRYDLDGLEKALQRAVFGQPAAVSRIVALMRDYLATHVHSRPLLLALHGPSGVGKSHVGRLLARHFRSVLEDSALVLQYHARHHCPEARAAQDCREELARRVADVVARAEAEEKTPLLVLDDVELMPRPLLDELHGFLQPQRSHHFHNAIYVLLSGAGGAEVTRFVLQNASRALPLRPDGFRSAEAAAAQAEEDLRASLLAVLSREHPLWQAAAIVPFLLLDKRDVVSCFRDEMAGEGFFPDQARAENLAAQLSFYRVAGREFAVTGCKQVVATVNLL [TOR4A] | 0.137 | 0.0625
MDSPGYNCFVDKDKMDAAIQDLGPKELSCTELQELKQLARQGYWAQSHALRGKVYQRLIRDIPCRTVTPDASVYSDIVGKIVGKHSSSCLPLPEFVDNTQVPSYCLNARGEGAVRKILLCLANQFPDISFCPALPAVVALLLHYSIDEAECFEKACRILACNDPGRRLIDQSFLAFESSCMTFGDLVNKYCQAAHKLMVAVSEDVLQVYADWQRWLFGELPLCYFARVFDVFLVEGYKVLYRVALAILKFFHKVRAGQPLESDSVKQDIRTFVRDIAKTVSPEKLLEKAFAIRLFSRKEIQLLQMANEKALKQKGITVKQKSVSLSKRQFVHLAVHAENFRSEIVSVREMRDIWSWVPERFALCQPLLLFSSLQHGYSLARFYFQCEGHEPTLLLIKTTQKEVCGAYLSTDWSERNKFGGKLGFFGTGECFVFRLQPEVQRYEWVVIKHPELTKPPPLMAAEPTAPLSHSASSDPADRLSPFLAARHFNLPSKTESMFMAGGSDCLIVGGGGGQALYIDGDLNRGRTSHCDTFNNQPLCSENFLIAAVEAWGFQDPDTQ [TBC1D24] | -0.273 | -0.16
MDSPWDELALAFSRTSMFPFFDIAHYLVSVMAVKRQPGAAALAWKNPISSWFTAMLHCFGGGILSCLLLAEPPLKFLANHTNILLASSIWYITFFCPHDLVSQGYSYLPVQLLASGMKEVTRTWKIVGGVTHANSYYKNGWIVMIAIGWARGAGGTIITNFERLVKGDWKPEGDEWLKMSYPAKVTLLGSVIFTFQHTQHLAISKHNLMFLYTIFIVATKITMMTTQTSTMTFAPFEDTLSWMLFGWQQPFSSCEKKSEAKSPSNGVGSLASKPVDVASDNVKKKHTKKNE [TMEM38B] | -0.0322 | -0.17
MDTKHFLPLDFSTQVNSSLTSPTGRGSMAAPSLHPSLGPGIGSPGQLHSPISTLSSPINGMGPPFSVISSPMGPHSMSVPTTPTLGFSTGSPQLSSPMNPVSSSEDIKPPLGLNGVLKVPAHPSGNMASFTKHICAICGDRSSGKHYGVYSCEGCKGFFKRTVRKDLTYTCRDNKDCLIDKRQRNRCQYCRYQKCLAMGMKREAVQEERQRGKDRNENEVESTSSANEDMPVERILEAELAVEPKTETYVEANMGLNPSSPNDPVTNICQAADKQLFTLVEWAKRIPHFSELPLDDQVILLRAGWNELLIASFSHRSIAVKDGILLATGLHVHRNSAHSAGVGAIFDRVLTELVSKMRDMQMDKTELGCLRAIVLFNPDSKGLSNPAEVEALREKVYASLEAYCKHKYPEQPGRFAKLLLRLPALRSIGLKCLEHLFFFKLIGDTPIDTFLMEMLEAPHQMT [RXRA] | 0.173 | -0.151
MEAAETEAEAAALEVLAEVAGILEPVGLQEEAELPAKILVEFVVDSQKKDKLLCSQLQVADFLQNILAQEDTAKGLDPLASEDTSRQKAIAAKEQWKELKATYREHVEAIKIGLTKALTQMEEAQRKRTQLREAFEQLQAKKQMAMEKRRAVQNQWQLQQEKHLQHLAEVSAEVRERKTGTQQELDRVFQKLGNLKQQAEQERDKLQRYQTFLQLLYTLQGKLLFPEAEAEAENLPDDKPQQPTRPQEQSTGDTMGRDPGVSFKAVGLQPAGDVNLP [ZWINT] | -0.0767 | 0.896
MEAKTLGTVTPRKPVLSVSARKIKDNAADWHNLILKWETLNDAGFTTANNIANLKISLLNKDKIELDSSSPASKENEEKVCLEYNEELEKLCEELQATLDGLTKIQVKMEKLSSTTKGICELENYHYGEESKRPPLFHTWPTTHFYEVSHKLLEMYRKELLLKRTVAKELAHTGDPDLTLSYLSMWLHQPYVESDSRLHLESMLLETGHRAL [CINP] | 0.148 | 0.525
MEDKRNIQIIEWEHLDKKKFYVFGVAMTMMIRVSVYPFTLIRTRLQVQKGKSLYHGTFDAFIKILRADGITGLYRGFLVNTFTLISGQCYVTTYELTRKFVADYSQSNTVKSLVAGGSASLVAQSITVPIDVVSQHLMMQRKGEKMGRFQVRGNPEGQGVVAFGQTKDIIRQILQADGLRGFYRGYVASLLTYIPNSAVWWPFYHFYAEQLSYLCPKECPHIVFQAVSGPLAAATASILTNPMDVIRTRVQVEGKNSIILTFRQLMAEEGPWGLMKGLSARIISATPSTIVIVVGYESLKKLSLRPELVDSRHW [SLC25A44] | -0.146 | -0.117
MEEGNNNEEVIHLNNFHCHRGQEWINLRDGPITISDSSDEERIPMLVTPAPQQHEEEDLDDDVILTEDDSEDDYGEFLDLGPPGISEFTKPSGQTEREPKPGPSHNQAANDIVNPRSEQKVIILEEGSLLYTESDPLETQNQSSEDSETELLSNLGESAALADDQAIEEDCWLDHPYFQSLNQQPREITNQVVPQERQPEAELGRLLFQHEFPGPAFPRPEPQQGGISGPSSPQPAHPLGEFEDQQLASDDEEPGPAFPMQESQEPNLENIWGQEAAEVDQELVELLVKETEARFPDVANGFIEEIIHFKNYYDLNVLCNFLLENPDYPKREDRIIINPSSSLLASQDETKLPKIDFFDYSKLTPLDQRCFIQAADLLMADFKVLSSQDIKWALHELKGHYAITRKALSDAIKKWQELSPETSGKRKKRKQMNQYSYIDFKFEQGDIKIEKRMFFLENKRRHCRSYDRRALLPAVQQEQEFYEQKIKEMAEHEDFLLALQMNEEQYQKDGQLIECRCCYGEFPFEELTQCADAHLFCKECLIRYAQEAVFGSGKLELSCMEGSCTCSFPTSELEKVLPQTILYKYYERKAEEEVAAAYADELVRCPSCSFPALLDSDVKRFSCPNPHCRKETCRKCQGLWKEHNGLTCEELAEKDDIKYRTSIEEKMTAARIRKCHKCGTGLIKSEGCNRMSCRCGAQMCYLCRVSINGYDHFCQHPRSPGAPCQECSRCSLWTDPTEDDEKLIEEIQKEAEEEQKRKNGENTFKRIGPPLEKPVEKVQRVEALPRPVPQNLPQPQMPPYAFAHPPFPLPPVRPVFNNFPLNMGPIPAPYVPPLPNVRVNYDFGPIHMPLEHNLPMHFGPQPRHRF [RNF216] | -0.195 | -0.122
MEGAAAREARGTETPRASAPPPAPSEPPAAPRARPRLVFRTQLAHGSPTGKIEGFTNVRELYAKIAEAFGIAPTEILFCTLNSHKVDMQKLLGGQIGLEDFIFAHVRGETKEVEVTKTEDALGLTITDNGAGYAFIKRIKEGSIINRIEAVCVGDSIEAINDHSIVGCRHYEVAKMLRELPKSQPFTLRLVQPKRAFDMIGQRSRSSKCPVEAKVTSGRETLRLRSGGAATVEEAPSEFEEEASRKVDDLLESYMGIRDPELASTMVETSKKTASAQEFARCLDSVLGEFAFPDEFVVEVWAAIGEAREACG [GIPC3] | 0.0786 | -0.0196
MEGDGVPWGSEPVSGPGPGGGGMIRELCRGFGRYRRYLGRLRQNLRETQKFFRDIKCSHNHTCLSSLTGGGGAERGPAGDVAETGLQAGQLSCISFPPKEEKYLQQIVDCLPCILILGQDCNVKCQLLNLLLGVQVLPTTKLGSEESCKLRRLRFTYGTQTRVSLALPGQYELVHTLVAHQGNWETIPEEDLEVQENNEDAAHVLAELEVTMHHALLQEVDVVVAPCQGLRPTVDVLGDLVNDFLPVITYALHKDELSERDEQELQEIRKYFSFPVFFFKVPKLGSEIIDSSTRRMESERSPLYRQLIDLGYLSSSHWNCGAPGQDTKAQSMLVEQSEKLRHLSTFSHQVLQTRLVDAAKALNLVHCHCLDIFINQAFDMQRDLQITPKRLEYTRKKENELYESLMNIANRKQEEMKDMIVETLNTMKEELLDDATNMEFKDVIVPENGEPVGTREIKCCIRQIQELIISRLNQAVANKLISSVDYLRESFVGTLERCLQSLEKSQDVSVHITSNYLKQILNAAYHVEVTFHSGSSVTRMLWEQIKQIIQRITWVSPPAITLEWKRKVAQEAIESLSASKLAKSICSQFRTRLNSSHEAFAASLRQLEAGHSGRLEKTEDLWLRVRKDHAPRLARLSLESCSLQDVLLHRKPKLGQELGRGQYGVVYLCDNWGGHFPCALKSVVPPDEKHWNDLALEFHYMRSLPKHERLVDLHGSVIDYNYGGGSSIAVLLIMERLHRDLYTGLKAGLTLETRLQIALDVVEGIRFLHSQGLVHRDIKLKNVLLDKQNRAKITDLGFCKPEAMMSGSIVGTPIHMAPELFTGKYDNSVDVYAFGILFWYICSGSVKLPEAFERCASKDHLWNNVRRGARPERLPVFDEECWQLMEACWDGDPLKRPLLGIVQPMLQGIMNRLCKSNSEQPNRGLDDST [DSTYK] | 0.0887 | -0.242
MEGVELKEEWQDEDFPIPLPEDDSIEADILAITGPEDQPGSLEVNGNKVRKKLMAPDISLTLDPSDGSVLSDDLDESGEIDLDGLDTPSENSNEFEWEDDLPKPKTTEVIRKGSITEYTAAEEKEDGRRWRMFRIGEQDHRVDMKAIEPYKKVISHGGYYGDGLNAIVVFAVCFMPESSQPNYRYLMDNLFKYVIGTLELLVAENYMIVYLNGATTRRKMPSLGWLRKCYQQIDRRLRKNLKSLIIVHPSWFIRTLLAVTRPFISSKFSQKIRYVFNLAELAELVPMEYVGIPECIKQVDQELNGKQDEPKNEQ [BNIP2] | 0.0256 | -0.366
